In US20040037843A1:
Like-named read-outs stand apart in the source and are kept apart here. Ends that are not written are not given here.

Columns and labels:
[1] = biological target: HLA-A*2401 (purified HLA class I molecule) (human)
HLA-A*2401 (human) [2] = biological target: HLA-A*2401 (human)
HLA-A*2401 (human) [3] = assay: competition with 125I-labelled probe peptide for purified HLA, gel filtration
HLA-A*2401 (human) [4] = assay: as above; remark: listed apart in the source
[5] = biological target: HLA-A*2401 (purified HLA class I molecule) (human); assay: competition with 125I-labelled standard peptide for purified HLA, gel filtration
HLA-A*0201 (human) [6] = assay: inhibition of 125I probe peptide binding to purified HLA; conditions: remark: other sources report otherwise
HLA-A*0203 (human) [7] = assay: as above; conditions: remark: other sources report otherwise
HLA-A*0202 (human) [8] = assay: as above; conditions: remark: other sources report otherwise
HLA-A*0206 (human) [9] = assay: as above; conditions: remark: other sources report otherwise
HLA-A*0202 (human) [10] = assay: competition with 125I probe peptide on purified HLA, gel filtration; conditions: remark: other sources report otherwise
HLA-A*0201 (human) [11] = assay: inhibition of 125I probe peptide binding to purified HLA, gel filtration; conditions: remark: other sources report otherwise
HLA-A*0202 (human) [12] = assay: as above; conditions: remark: other sources report otherwise
HLA-A*0206 (human) [13] = assay: as above; conditions: remark: other sources report otherwise
HLA-A*0201 (human) [14] = conditions: remark: other sources report otherwise
HLA-A*0203 (human) [15] = conditions: remark: other sources report otherwise
HLA-A*0206 (human) [16] = conditions: remark: other sources report otherwise
HLA-A*6802 (human) = conditions: remark: other sources report otherwise
HLA-A*0202 (human) [17] = conditions: remark: other sources report otherwise
HLA-A*0203 (human) [18] = assay: competition with 125I-labelled standard peptide for purified HLA, gel filtration; conditions: remark: other sources report otherwise
HLA-A*0202 (human) [19] = assay: as above; conditions: remark: other sources report otherwise
HLA-A*0206 (human) [20] = assay: as above; conditions: remark: other sources report otherwise
HLA-A*0201 (human) [21] = assay: as above; conditions: remark: other sources report otherwise
[22] = scale: ratio to standard peptide

EYIRKRYRKF [PAP (prostatic acid phosphatase) peptide, position 83, 10 amino acids] was tested, and the relative binding ratio (IC50 of standard peptide / IC50 of test peptide) [1] was 0.0067.

For FFWLDRSVL [PAP (prostatic acid phosphatase) peptide, position 23, 9 amino acids], the relative binding ratio (IC50 of standard peptide / IC50 of test peptide) [1] was 0.0017.

In the case of GFLFLLFFW [PAP (prostatic acid phosphatase) peptide, position 17, 9 amino acids], the relative binding ratio (IC50 of standard peptide / IC50 of test peptide) [1] is reported as 0.0016.

GFLFLLFFWL [PAP (prostatic acid phosphatase) peptide, position 17, 10 amino acids] gave a relative binding ratio (IC50 of standard peptide / IC50 of test peptide) [1] of 0.0007.

For GWGSIEPEEF [Kallikrein position 156, 10 amino acids (…)], the relative binding ratio (IC50 of standard peptide / IC50 of test peptide) (HLA-A*2401 (human) [2]) was 0.0001.

With HYRKWIKDTI [Kallikrein position 248, 10 amino acids (…)] the relative binding ratio (IC50 of standard peptide / IC50 of test peptide) (HLA-A*2401 (human) [2]) was 0.055.

In the case of IWSKVYDPL [PAP position 205, 9 amino acids (…)], the relative binding ratio (IC50 of standard peptide / IC50 of test peptide) (HLA-A*2401 (human) [2]) is reported as 0.0024.

LFFWLDRSVL [PAP position 22, 10 amino acids] showed a relative binding ratio (IC50 of standard peptide / IC50 of test peptide) (HLA-A*2401 (human) [3]) of 0.0045 and a relative binding ratio (IC50 of standard peptide / IC50 of test peptide) (HLA-A*2401 (human) [4]) of 0.0045.

Work on LFPPEGVSI [PAP position 123, 9 amino acids] yielded a relative binding ratio (IC50 of standard peptide / IC50 of test peptide) (HLA-A*2401 (human) [3]) of 0.0033 and a relative binding ratio (IC50 of standard peptide / IC50 of test peptide) [5] of 0.0033.

For LFPPEGVSIW [PAP position 123, 10 amino acids], the relative binding ratio (IC50 of standard peptide / IC50 of test peptide) (HLA-A*2401 (human) [3]) was 0.014 and the relative binding ratio (IC50 of standard peptide / IC50 of test peptide) [5] was 0.014.

LYCESVHNF [PAP position 213, 9 amino acids] gave a relative binding ratio (IC50 of standard peptide / IC50 of test peptide) (HLA-A*2401 (human) [3]) of 0.44 and a relative binding ratio (IC50 of standard peptide / IC50 of test peptide) [5] of 0.44.

In the case of LYFEKGEYF [PAP position 318, 9 amino acids], the relative binding ratio (IC50 of standard peptide / IC50 of test peptide) (HLA-A*2401 (human) [3]) is reported as 2.5 and the relative binding ratio (IC50 of standard peptide / IC50 of test peptide) [5] is reported as 2.5.

Binder CAGRWTGGKST [PSA position 194, 11 amino acids] has a relative binding ratio (HLA-A*0201 (human) [6]) of 0.0013, a relative binding ratio (HLA-A*0203 (human) [7]) of 0.025 and a relative binding ratio (HLA-A*0202 (human) [8]) of 0.037. It also gave a relative binding ratio (HLA-A*0206 (human) [9]) of 0.0002.

Work on CALPERPSLYT [PSA position 230, 11 amino acids] yielded a relative binding ratio (HLA-A*0201 (human) [6]) of 0.0008, a relative binding ratio (HLA-A*0203 (human) [7]) of 0.0071 and a relative binding ratio (HLA-A*0206 (human) [9]) of 0.0016.

In the case of CARAYSEKVT [Kallikrein position 184, 10 amino acids], the relative binding ratio (HLA-A*0201 (human) [6]) is reported as 0.0074, the relative binding ratio (HLA-A*0203 (human) [7]) is reported as 0.02 and the relative binding ratio (HLA-A*0206 (human) [9]) is reported as 0.003.

With FLFLLFFWV [Peptide 60.0203 … (PAP.18.V9)] the IC50 (HLA-A*0203 (human) [7]) was 625 nM and the IC50 (HLA-A*0202 (human) [8]) was 307 nM.

ALFPPEGVSV [Peptide 1419.61 … (PAP.122.V10)] was tested, and the IC50 (HLA-A*0202 (human) [10]) was 1 nM.

GLHGQDLFGI [Peptide 1166.11 … (PAP.196)] showed an IC50 (HLA-A*0202 (human) [10]) of 0.9 nM.

VVFLTLSVTWI [Peptide 1419.25 (PSA.1)] showed an IC50 (HLA-A*0201 (human) [11]) of 385 nM, an IC50 (HLA-A*0202 (human) [12]) of 159 nM and an IC50 (HLA-A*0206 (human) [13]) of 2850 nM.

Binder VVFLTLSVTWV [Peptide 63.0185 (PSA.1.V11)] has an IC50 (HLA-A*0201 (human) [11]) of 89 nM and an IC50 (HLA-A*0206 (human) [13]) of 336 nM.

FLTLSVTWV [Peptide 60.0216 (PSA.3.V9)] showed an IC50 (HLA-A*0202 (human) [12]) of 8.4 nM.

For DLMLLRLSEPV [Peptide 63.0109 (PSA.116.V11)], the IC50 (HLA-A*0201 (human) [11]) was 50 nM.

Binder DLPTQEPALGT [PSA position 136, 11 amino acids] has a relative binding ratio (HLA-A*0201 (human) [6]) of 0.0041, a relative binding ratio (HLA-A*0203 (human) [7]) of 0.01 and a relative binding ratio (HLA-A*0202 (human) [8]) of 0.018. It also gave a relative binding ratio (HLA-A*0206 (human) [9]) of 0.0001.

KLQCVDLHVV [Peptide 63.0058 (PSA.166.V10)] showed an IC50 (HLA-A*0206 (human) [13]) of 500 nM.

KVTKFMLCV [Peptide 60.0220 (PSA.187.V9)] was tested, and the IC50 (HLA-A*0201 (human) [11]) was 69 nM, the IC50 (HLA-A*0202 (human) [12]) was 518 nM and the IC50 (HLA-A*0206 (human) [13]) was 128 nM.

With SVGCTGAVPV [peptide 1418.35 (HuK2.11.V10)] the IC50 (HLA-A*0201 (human) [14]) was 104 nM, the IC50 (HLA-A*0203 (human) [15]) was 154 nM and the IC50 (HLA-A*0206 (human) [16]) was 552 nM.

For LMLLRLSEPA [peptide 63.0014 (HuK2.121)], the IC50 (HLA-A*0201 (human) [14]) was 200 nM and the IC50 (HLA-A*6802 (human)) was 5000 nM.

FLRPRSLQCV [peptide 1419.07 (HuK2.165)] showed an IC50 (HLA-A*0203 (human) [15]) of 4.2 nM.

SLQCVSLHL [peptide 60.0191 (HuK2.170, 9-mer)] gave an IC50 (HLA-A*0201 (human) [14]) of 500 nM, an IC50 (HLA-A*0203 (human) [15]) of 417 nM and an IC50 (HLA-A*0202 (human) [17]) of 51 nM. For the same binder, the IC50 (HLA-A*6802 (human)) was 2580 nM.

In the case of SLQCVSLHLL [peptide 1419.66 (HuK2.170, 10-mer)], the IC50 (HLA-A*0201 (human) [14]) is reported as 263 nM, the IC50 (HLA-A*0202 (human) [17]) is reported as 4.9 nM and the IC50 (HLA-A*6802 (human)) is reported as 5000 nM. The IC50 (HLA-A*0206 (human) [16]) was 446 nM.

Binder SLQCVSLHV [peptide 1418.19 (HuK2.170.V9)] has an IC50 (HLA-A*0201 (human) [14]) of 56 nM, an IC50 (HLA-A*0203 (human) [15]) of 48 nM and an IC50 (HLA-A*0206 (human) [16]) of 4110 nM.

With SLHLLSNDMCV [peptide 1418.66 (HuK2.175.V11)] the IC50 (HLA-A*0201 (human) [14]) was 8.6 nM, the IC50 (HLA-A*0203 (human) [15]) was 10 nM and the IC50 (HLA-A*0202 (human) [17]) was 0.8 nM. For the same binder, the IC50 (HLA-A*6802 (human)) was 2160 nM and the IC50 (HLA-A*0206 (human) [16]) was 2310 nM.

With HLLSNDMCARA (not fully specified) [peptide 1419.15 (HuK2.177)] the IC50 (HLA-A*0203 (human) [15]) was 250 nM.

Binder HLLSNDMCARV [peptide 1418.67 (HuK2.177.V11)] has an IC50 (HLA-A*0203 (human) [15]) of 5.3 nM, an IC50 (HLA-A*0202 (human) [17]) of 1.3 nM and an IC50 (HLA-A*6802 (human)) of 860 nM. The IC50 (HLA-A*0206 (human) [16]) was 37 nM.

Work on GAAPLILSRIV [PSA position 12, 11 amino acids] yielded a relative binding ratio (HLA-A*0203 (human) [18]) of 0.011, a relative binding ratio (HLA-A*0202 (human) [19]) of 0.022 and a relative binding ratio (HLA-A*0206 (human) [20]) of 0.0006.

For IALSVGCTGAV [Kallikrein position 8, 11 amino acids], the relative binding ratio (HLA-A*0201 (human) [21]) was 0.0009, the relative binding ratio (HLA-A*0203 (human) [18]) was 0.027 and the relative binding ratio (HLA-A*0202 (human) [19]) was 0.0032. For the same binder, the relative binding ratio (HLA-A*0206 (human) [20]) was 0.01.

With ITSWGSEPCAL (not fully specified) [PSA position 222, 11 amino acids] the relative binding ratio (HLA-A*0201 (human) [21]) was 0.001, the relative binding ratio (HLA-A*0203 (human) [18]) was 0.0096 and the relative binding ratio (HLA-A*0202 (human) [19]) was 0.012. The relative binding ratio (HLA-A*0206 (human) [20]) was 0.0001.

LLRLSEPAELT [PSA peptide, position 119, 11 amino acids] showed a relative binding ratio (HLA-A*0201 (human) [21]; [22]) of 0.0023 and a relative binding ratio (HLA-A*0206 (human) [20]; [22]) of 0.0002.

LLSNDMCARA (not fully specified) [Kallikrein (human kallikrein2) peptide, position 178, 10 amino acids] showed a relative binding ratio (HLA-A*0201 (human) [21]; [22]) of 0.003, a relative binding ratio (HLA-A*0203 (human) [18]; [22]) of 0.028 and a relative binding ratio (HLA-A*0202 (human) [19]; [22]) of 0.08. For the same binder, the relative binding ratio (HLA-A*0206 (human) [20]; [22]) was 0.002.

LTLSVTWIGA [PSA peptide, position 4, 10 amino acids] was tested, and the relative binding ratio (HLA-A*0201 (human) [21]; [22]) was 0.0018, the relative binding ratio (HLA-A*0203 (human) [18]; [22]) was 0.082 and the relative binding ratio (HLA-A*0202 (human) [19]; [22]) was 0.045. It also gave a relative binding ratio (HLA-A*0206 (human) [20]; [22]) of 0.011.

In the case of LTPKKLQCVDL [PSA peptide, position 162, 11 amino acids], the relative binding ratio (HLA-A*0203 (human) [18]; [22]) is reported as 0.0074 and the relative binding ratio (HLA-A*0202 (human) [19]; [22]) is reported as 0.0087.

Binder PTQEPALGTT [Kallikrein position 142, 10 amino acids] has a relative binding ratio (IC50 of standard peptide / IC50 of test peptide) (HLA-A*0201 (human) [21]) of 0.0084, a relative binding ratio (IC50 of standard peptide / IC50 of test peptide) (HLA-A*0203 (human) [18]) of 0.052 and a relative binding ratio (IC50 of standard peptide / IC50 of test peptide) (HLA-A*0202 (human) [19]) of 0.022. The relative binding ratio (IC50 of standard peptide / IC50 of test peptide) (HLA-A*0206 (human) [20]) was 0.0037.

For VISNDVCAQV [PSA position 174, 10 amino acids], the relative binding ratio (IC50 of standard peptide / IC50 of test peptide) (HLA-A*0201 (human) [21]) was 0.0008.
